Reference: publication doi:10.1101/2021.08.22.457263, “Reconstitution of surface lipoprotein translocation reveals Slam as an outer membrane translocon in Gram-negative bacteria” (bioRxiv, 2021)

Target: T1, M. catarrhalis transferrin binding protein B with C-terminal flag-tag (Mcat TbpB-flag) (Moraxella catarrhalis, UniProt P0DTW7 21-706, lipidated)
T1 sequence: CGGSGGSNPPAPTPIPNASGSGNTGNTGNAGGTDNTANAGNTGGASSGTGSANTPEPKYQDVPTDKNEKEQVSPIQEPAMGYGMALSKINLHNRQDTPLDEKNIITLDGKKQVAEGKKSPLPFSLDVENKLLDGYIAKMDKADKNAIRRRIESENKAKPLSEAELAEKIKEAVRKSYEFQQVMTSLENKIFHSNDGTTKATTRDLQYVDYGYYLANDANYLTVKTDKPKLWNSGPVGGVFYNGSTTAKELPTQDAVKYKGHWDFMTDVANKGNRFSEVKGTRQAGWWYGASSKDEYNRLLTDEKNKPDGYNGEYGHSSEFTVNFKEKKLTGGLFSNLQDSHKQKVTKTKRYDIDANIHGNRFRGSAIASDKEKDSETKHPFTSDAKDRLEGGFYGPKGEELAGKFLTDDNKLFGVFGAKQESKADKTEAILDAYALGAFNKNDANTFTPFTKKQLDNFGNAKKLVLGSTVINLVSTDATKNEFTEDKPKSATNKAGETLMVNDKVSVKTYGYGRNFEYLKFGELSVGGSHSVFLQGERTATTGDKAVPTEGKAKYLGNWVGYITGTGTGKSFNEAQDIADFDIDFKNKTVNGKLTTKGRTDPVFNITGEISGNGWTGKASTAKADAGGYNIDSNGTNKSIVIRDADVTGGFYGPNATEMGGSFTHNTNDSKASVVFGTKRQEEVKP
Assay: cell-based or functional assay

B1: His-tagged E. coli Skp, purified (natural protein, UniProt P0AEU7 21-161, looked up)
chain: ADKIAIVNMGSLFQQVAQKTGVSNTLENEFKGRASELQRMETDLQAKMKKLQSMKAGSDRTKLEKDVMAQRQTFAQKAQAFEQDRARRSNEERGKLVTRIQTAVKSVANSQDIDLVVDANAVAYNSSDVKDITADVLKQVK
protection of urea-unfolded purified TbpB from proteinase K with empty liposomes, Skp added against SurA added: 2 fold
